This assay has as its target DDX19B, Q9UMR2-1.

Chain of DDX19B, Q9UMR2-1 (Q9UMR2 whole entry): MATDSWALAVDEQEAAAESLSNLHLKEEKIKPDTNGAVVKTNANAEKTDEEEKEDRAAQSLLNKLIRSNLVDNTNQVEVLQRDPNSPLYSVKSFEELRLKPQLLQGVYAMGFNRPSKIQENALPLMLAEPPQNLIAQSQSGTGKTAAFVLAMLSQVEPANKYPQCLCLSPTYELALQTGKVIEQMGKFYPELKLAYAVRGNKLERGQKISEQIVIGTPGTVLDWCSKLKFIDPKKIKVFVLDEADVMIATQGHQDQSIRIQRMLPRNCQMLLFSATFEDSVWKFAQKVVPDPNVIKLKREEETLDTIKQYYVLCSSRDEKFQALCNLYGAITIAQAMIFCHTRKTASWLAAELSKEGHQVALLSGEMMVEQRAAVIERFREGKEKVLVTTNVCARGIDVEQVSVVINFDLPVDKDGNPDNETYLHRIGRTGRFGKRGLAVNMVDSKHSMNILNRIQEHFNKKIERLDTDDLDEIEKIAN
Chain of Nuclear pore complex protein Nup214 (Homo sapiens), P35658-1 V353A (P35658 whole entry V353A, one chain of several): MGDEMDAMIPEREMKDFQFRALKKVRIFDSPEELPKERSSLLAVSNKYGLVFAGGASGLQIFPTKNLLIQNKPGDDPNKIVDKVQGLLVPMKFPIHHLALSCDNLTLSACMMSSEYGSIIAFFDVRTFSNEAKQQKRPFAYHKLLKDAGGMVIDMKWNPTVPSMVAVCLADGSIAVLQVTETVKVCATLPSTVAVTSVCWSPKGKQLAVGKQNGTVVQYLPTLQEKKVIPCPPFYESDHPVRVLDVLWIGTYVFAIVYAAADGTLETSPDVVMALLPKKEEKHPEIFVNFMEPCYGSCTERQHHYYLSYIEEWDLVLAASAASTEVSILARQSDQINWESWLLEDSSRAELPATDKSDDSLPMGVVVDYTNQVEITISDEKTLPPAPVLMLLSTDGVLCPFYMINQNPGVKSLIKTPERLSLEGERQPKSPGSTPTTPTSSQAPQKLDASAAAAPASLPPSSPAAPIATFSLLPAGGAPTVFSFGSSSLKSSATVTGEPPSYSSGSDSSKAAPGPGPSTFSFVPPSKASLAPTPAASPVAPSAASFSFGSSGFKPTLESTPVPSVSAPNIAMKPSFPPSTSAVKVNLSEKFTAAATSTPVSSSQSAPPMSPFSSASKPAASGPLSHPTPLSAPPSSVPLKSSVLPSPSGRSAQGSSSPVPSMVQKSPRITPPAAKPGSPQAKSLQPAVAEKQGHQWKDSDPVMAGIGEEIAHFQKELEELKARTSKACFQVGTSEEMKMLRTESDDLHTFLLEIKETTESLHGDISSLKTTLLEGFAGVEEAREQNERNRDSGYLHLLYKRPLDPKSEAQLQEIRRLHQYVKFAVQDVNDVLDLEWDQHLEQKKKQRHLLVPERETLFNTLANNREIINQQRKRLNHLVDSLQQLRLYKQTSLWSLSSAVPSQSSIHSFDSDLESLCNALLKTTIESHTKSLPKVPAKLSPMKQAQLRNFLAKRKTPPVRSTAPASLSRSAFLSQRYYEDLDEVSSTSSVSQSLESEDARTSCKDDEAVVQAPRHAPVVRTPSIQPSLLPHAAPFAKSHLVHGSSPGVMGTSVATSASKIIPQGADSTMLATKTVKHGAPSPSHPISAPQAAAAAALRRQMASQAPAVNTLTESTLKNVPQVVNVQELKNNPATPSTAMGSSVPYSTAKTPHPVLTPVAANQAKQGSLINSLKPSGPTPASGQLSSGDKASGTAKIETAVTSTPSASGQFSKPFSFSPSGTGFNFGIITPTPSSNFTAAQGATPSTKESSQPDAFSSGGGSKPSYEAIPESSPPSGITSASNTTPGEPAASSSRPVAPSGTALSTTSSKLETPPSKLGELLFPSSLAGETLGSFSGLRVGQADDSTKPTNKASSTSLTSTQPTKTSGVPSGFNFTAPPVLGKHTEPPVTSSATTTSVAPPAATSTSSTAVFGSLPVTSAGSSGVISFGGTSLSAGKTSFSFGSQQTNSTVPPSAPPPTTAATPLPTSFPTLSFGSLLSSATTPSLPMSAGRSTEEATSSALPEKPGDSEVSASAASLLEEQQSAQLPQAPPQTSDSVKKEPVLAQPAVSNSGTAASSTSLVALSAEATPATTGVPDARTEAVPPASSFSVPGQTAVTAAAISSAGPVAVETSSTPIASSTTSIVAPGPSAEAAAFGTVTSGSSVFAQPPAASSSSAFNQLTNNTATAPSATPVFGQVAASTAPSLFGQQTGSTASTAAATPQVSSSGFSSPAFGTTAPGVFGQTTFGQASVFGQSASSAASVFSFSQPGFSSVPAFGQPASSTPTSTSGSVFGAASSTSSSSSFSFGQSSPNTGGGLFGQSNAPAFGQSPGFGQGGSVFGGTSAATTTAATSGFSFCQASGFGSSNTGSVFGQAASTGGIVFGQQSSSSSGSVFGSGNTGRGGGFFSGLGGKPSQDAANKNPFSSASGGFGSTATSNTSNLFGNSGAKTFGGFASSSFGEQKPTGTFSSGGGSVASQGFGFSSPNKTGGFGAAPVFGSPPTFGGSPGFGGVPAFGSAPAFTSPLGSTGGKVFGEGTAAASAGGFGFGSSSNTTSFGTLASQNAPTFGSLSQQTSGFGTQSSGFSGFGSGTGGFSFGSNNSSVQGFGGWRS
Chain of Nuclear pore complex protein Nup214 (Homo sapiens), P35658-1 D359R (P35658 whole entry D359R, one chain of several): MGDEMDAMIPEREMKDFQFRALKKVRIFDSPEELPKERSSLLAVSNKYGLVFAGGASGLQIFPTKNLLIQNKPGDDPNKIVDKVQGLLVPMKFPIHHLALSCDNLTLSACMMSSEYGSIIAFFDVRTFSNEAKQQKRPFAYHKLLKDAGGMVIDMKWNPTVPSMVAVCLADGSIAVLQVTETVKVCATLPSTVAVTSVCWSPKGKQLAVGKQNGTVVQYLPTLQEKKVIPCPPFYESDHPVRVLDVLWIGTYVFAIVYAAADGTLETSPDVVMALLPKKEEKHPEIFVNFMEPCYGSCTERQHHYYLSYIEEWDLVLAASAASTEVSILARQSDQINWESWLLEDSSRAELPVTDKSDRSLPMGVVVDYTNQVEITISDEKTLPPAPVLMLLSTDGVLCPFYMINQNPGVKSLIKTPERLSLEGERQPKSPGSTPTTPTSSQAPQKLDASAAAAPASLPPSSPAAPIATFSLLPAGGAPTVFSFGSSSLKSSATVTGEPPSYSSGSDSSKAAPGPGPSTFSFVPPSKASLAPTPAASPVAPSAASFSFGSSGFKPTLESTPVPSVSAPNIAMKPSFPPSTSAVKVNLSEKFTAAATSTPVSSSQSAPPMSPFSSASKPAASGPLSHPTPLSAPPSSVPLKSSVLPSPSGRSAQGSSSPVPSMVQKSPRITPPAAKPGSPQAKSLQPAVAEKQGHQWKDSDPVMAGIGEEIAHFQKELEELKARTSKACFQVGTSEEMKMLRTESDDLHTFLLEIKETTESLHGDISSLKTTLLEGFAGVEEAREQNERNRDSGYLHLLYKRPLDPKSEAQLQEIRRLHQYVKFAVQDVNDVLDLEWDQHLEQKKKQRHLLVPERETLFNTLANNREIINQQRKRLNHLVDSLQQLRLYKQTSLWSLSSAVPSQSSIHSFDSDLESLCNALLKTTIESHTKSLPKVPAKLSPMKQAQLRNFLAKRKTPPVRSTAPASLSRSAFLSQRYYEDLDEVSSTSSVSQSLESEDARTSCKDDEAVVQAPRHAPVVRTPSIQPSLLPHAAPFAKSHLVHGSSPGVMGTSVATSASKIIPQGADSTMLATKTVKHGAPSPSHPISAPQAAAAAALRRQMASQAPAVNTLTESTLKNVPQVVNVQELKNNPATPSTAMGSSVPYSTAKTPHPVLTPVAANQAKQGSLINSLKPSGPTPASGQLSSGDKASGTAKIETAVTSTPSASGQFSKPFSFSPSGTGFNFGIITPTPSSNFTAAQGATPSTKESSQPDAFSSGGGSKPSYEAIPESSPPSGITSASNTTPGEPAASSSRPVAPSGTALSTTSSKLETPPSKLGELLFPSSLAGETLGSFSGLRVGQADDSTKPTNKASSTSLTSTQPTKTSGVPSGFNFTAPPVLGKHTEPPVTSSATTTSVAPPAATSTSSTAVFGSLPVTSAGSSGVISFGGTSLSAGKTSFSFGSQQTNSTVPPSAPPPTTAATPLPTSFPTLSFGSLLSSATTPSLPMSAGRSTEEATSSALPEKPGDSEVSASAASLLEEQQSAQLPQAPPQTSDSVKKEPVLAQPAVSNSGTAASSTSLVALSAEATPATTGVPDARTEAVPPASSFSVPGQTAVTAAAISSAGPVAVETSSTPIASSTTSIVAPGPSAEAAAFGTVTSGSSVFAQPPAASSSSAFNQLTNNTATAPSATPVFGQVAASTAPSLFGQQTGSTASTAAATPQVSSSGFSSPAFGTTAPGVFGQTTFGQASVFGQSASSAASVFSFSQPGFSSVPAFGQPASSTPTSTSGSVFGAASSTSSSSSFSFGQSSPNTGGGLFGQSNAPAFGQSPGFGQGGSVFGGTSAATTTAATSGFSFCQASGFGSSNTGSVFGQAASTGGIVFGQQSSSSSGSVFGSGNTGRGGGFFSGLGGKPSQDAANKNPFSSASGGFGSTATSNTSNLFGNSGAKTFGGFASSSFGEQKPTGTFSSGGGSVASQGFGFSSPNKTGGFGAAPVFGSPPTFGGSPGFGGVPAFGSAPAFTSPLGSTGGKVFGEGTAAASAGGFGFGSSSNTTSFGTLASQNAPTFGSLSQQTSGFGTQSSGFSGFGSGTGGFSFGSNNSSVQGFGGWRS

In the case of “Nuclear pore complex protein Nup214 (Homo sapiens), P35658-1 V353A”, the “effect of a mutation on the interaction” value is “decreasing interaction”.

For “Nuclear pore complex protein Nup214 (Homo sapiens), P35658-1 D359R”, the “effect of a mutation on the interaction” value was “disrupting interaction”.

The record behind these values is IntAct's records for PubMed 19219046.
